How the values were obtained:
[1] = target: HIV-1 gp120 protein (Fitzgerald Industries International Inc, USA) (HIV-1); assay: fusion peptide on Ni-NTA magnetic agarose beads, detected with FITC-labeled gp120 antibody, fluorescence microscopy
[2] = target: HIV-1 gp120 protein (Fitzgerald Industries International Inc, USA) (HIV-1); assay: dot blot: value derived from 1 pg in 1 mL of 10-fold diluted human serum
[3] = target: HIV-1 gp120 protein (Fitzgerald Industries International Inc, USA) (HIV-1); assay: dot blot: 5 ng fusion F23 peptide on nitrocellulose, gp120 in 10-fold diluted human serum, HRP-conjugated gp120 antibody, chemiluminescence

B1: fusion F23 peptide (His6-tag, 15 amino acid linker derived from E. coli DHFR, F23) (designed binder)
chain: MIHHHHHHEMISLIAALAVIEGRCNLHFCQLRCKSLGLLGKCAGSFCACV
**Q.** With B1 as the binder, how does the gp120 concentration detected [1] read?
**A.** The gp120 concentration detected was 10 ng/µL.

**Q.** And the detectable gp120 concentration in human blood [2]?
**A.** Its detectable gp120 concentration in human blood is 10 pg/mL.

**Q.** What about the detection limit of gp120 [3] of the same binder?
**A.** Its detection limit of gp120 is 1 pg/mL.
